The source of these data is patent publication US5691196, “Recombinant nucleic acid containing a response element” (American Cyanamid Company).

The target in data set [1] is T1, RXRalpha (Homo sapiens, UniProt P19793 P19793:1-462). Briefly: cell_activity; RA vs no RA. As to conditions: tags: pMT2-RXRalpha, CV-1 cells; 5' GATC overhang.
Data set [2] addresses T1, RXRalpha. Briefly: cell_activity; CAT reporter, RA vs no RA. As to conditions: tags: pMT2-RXRalpha, CV-1 cells; 5' GATC overhang.
Procedure: (§1) Maintenance of CV-1 cells, transfection of plasmid DNA into these cells, normalization for plasmid DNA uptake by the cells and CAT and β-galactosidase (β-gal) assays are performed as previously described in the literature. The transfection mixtures contained 5 μg of each reporter plasmid, 5 μg of the β-gal expression vector pRSV-β-gal, the amounts of the pMT2-RXRα, pMT2-RARα, pMT2-RARβ, pMT2-ARP-1 and pMT2-Ear3-COUP-TF expression vectors and the appropriate amounts of the previously described control vector pMT2-UT to bring the final amount of the plasmid DNA in the transfection mixtures to a total of 17 μg. The transfection mixtures containing the expression vectors pMT2-HNF4 or pSG5-AR, 1 μg of the β-gal expression vector pCMV-β-gal instead of the vector pRSV-β-gal is used and the final amount of plasmid DNA in the transfection mixture is adjusted to a total of 13 μg as described above.
(§2) The CAT activity in extracts from these cells is normalized for DNA uptake by the cells by conventional methods, and expressed relative to the normalized CAT activity of the construct -41ALCAT in the absence of cotransfected receptor expression vectors or any ligands (Relative CAT Activity). The data represent the average of at least two independent experiments.
Data set [3] has as its target T1, RXRalpha. Briefly: cell_activity; RA vs no RA. As to conditions: tags: pMT2-RXRalpha, CV-1 cells; 5' GATC overhang. This is another data set of the same source.
Procedure: as §1, §2
Data set [4] addresses T1, RXRalpha. Briefly: cell_activity; yeast lacZ reporter, two copies, 1e-6 M 9-cis-RA; 4-fold with all-trans-RA. The following applies: protein: extract; tags: ubiquitin-fusion expression in yeast (YEpRXRalpha); label: 32P.
A further data set deals with T2, RARalpha (UniProt P10276 P10276:1-462).
T2 sequence: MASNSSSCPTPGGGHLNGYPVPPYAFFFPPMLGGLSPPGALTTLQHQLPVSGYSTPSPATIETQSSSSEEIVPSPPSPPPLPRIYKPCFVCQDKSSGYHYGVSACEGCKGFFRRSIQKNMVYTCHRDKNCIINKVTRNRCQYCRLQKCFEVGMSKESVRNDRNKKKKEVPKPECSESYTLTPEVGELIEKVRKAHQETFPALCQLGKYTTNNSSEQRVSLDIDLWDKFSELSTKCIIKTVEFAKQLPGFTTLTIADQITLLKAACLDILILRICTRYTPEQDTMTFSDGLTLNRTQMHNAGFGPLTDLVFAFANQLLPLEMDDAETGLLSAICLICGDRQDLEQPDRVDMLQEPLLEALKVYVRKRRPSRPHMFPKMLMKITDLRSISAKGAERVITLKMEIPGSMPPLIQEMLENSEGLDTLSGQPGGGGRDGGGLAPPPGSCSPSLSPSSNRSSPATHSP
Briefly: cell_activity; two copies of M3; RA; 500 ng RARalpha vector reverses ARP-1 repression and exceeds no-ARP-1 level. The following applies: tags: pMT2-RARalpha, CV-1 cells; 5' GATC overhang. How it is done: A reporter construct similar to [A5']-41ALCAT but containing two copies of a mutated version of site A5' in which the sequence CCT in the spacer between the two repeats in the site A5' has been changed to TTT (M3) is tested for its responsiveness to different amounts (indicated) of the RXRα or RARα expression vectors in the presence of RA and the indicated amounts of the ARP-1 expression vector by transient transfection assays into CV-1 cells as described in FIG. 8.

T1 sequence (P19793 whole entry, one chain of several): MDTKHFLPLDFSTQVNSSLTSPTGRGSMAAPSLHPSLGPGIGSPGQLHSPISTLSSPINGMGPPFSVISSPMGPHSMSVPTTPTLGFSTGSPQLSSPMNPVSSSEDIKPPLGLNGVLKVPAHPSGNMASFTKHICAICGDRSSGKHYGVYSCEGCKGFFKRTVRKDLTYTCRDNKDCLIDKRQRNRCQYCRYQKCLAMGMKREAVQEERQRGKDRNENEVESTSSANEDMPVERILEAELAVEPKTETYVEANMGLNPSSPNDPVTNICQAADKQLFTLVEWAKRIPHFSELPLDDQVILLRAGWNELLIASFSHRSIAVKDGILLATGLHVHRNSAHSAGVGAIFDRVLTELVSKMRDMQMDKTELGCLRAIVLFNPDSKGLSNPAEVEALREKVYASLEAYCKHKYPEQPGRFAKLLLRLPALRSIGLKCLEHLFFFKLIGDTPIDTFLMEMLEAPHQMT

B1: M9 (dsDNA)
DNA 1: ACTGAACTGTGACCCCTG
DNA 2: CAGGGGTCACAGTTCAGT
Take B1: the activity with RXRalpha [1] is under 3 fold.

B2: M10 (dsDNA)
DNA 1: ACTGACCTGTGACCCCTG
DNA 2: CAGGGGTCACAGGTCAGT
Molecule B2 returned an activity with RXRalpha [1] of under 3 fold.

B3: site A5' (dsDNA)
DNA 1: ACTGAACCCTTGACCCCTG
DNA 2: CAGGGGTCAAGGGTTCAGT
For B3, in the data set with RXRalpha [2], the activity was 4.8 fold.

B4: M2 (dsDNA)
DNA 1: ACTGAACTGATGACCCCTG
DNA 2: CAGGGGTCATCAGTTCAGT
The molecule B4 yielded an activity in the data set with RXRalpha [3] of under 3 fold.

B5: apoAI site A (oligo A) (dsDNA)
DNA 1: ACTGAACCCTTGACCCCTGCCCT
DNA 2: AGGGCAGGGGTCAAGGGTTCAGT
The molecule B5 gave an activity in the data set with RXRalpha [4] of 14 fold.

B6: M3 (dsDNA)
DNA 1: ACTGAACTTTTGACCCCTG
DNA 2: CAGGGGTCAAAAGTTCAGT
Take B6: the activity in the data set with RARalpha is over 2 fold.

B7: M4 (dsDNA)
DNA 1: ACTGACCCCTTGACCCCTG
DNA 2: CAGGGGTCAAGGGGTCAGT
In the data set with RXRalpha [2], B7 yielded an activity of 7 fold.
